In this test the target is T1, rhCD6FC/Chimera (R and D systems) (human, UniProt P30203 25-398).
T1 construct: Bought reagent; also called CD6 receptor; Fc part of the bought chimera not given
T1 sequence (looked up): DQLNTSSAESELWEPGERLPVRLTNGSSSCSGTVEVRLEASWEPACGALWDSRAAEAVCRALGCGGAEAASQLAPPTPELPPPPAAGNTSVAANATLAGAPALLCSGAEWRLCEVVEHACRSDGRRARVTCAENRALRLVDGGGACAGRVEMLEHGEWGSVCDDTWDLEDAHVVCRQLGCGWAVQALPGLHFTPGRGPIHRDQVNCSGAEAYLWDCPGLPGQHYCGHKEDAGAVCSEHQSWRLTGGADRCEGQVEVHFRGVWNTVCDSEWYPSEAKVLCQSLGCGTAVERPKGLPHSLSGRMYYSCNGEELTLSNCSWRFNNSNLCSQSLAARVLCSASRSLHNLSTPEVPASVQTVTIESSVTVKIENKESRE
The test can be described thus: ELISA, plate-bound rhCD6-Fc, T1h 0.2 mg/ml with varying rhALCAM-Fc, anti human IgG (Fab)2 ALP detection. How it is done: The rhCD6FC/Chimera (R and D systems) (100 μg/ml) was diluted in coating buffer and 100 μl was added to each well of a 96 well Nunc-Maxisorp plate. The plate was then incubated at 4° C. overnight. The Plate was washed thrice with PBS Tween 20. Subsequently, 200 μl of blocking solution (2% BSA+0.1%Tween 20 in 1× PBS) was added and incubated for 1 hour at 37° C. After incubation, the plate was washed again with PBS Tween thrice, followed by the addition of T1h monoclonal antibody (0.2 mg/ml) and .rhALCAMFc (R and D systems) at varying concentrations. This was then incubated for an hour at 37° C. The plate was washed 3 times subsequently with PBS Tween. To the wells 200 μl of anti human IgG (Fab)₂ ALP (1:20000) diluted in blocking buffer was added and incubated for 1 hour at 37° C. The plate was washed thrice with PBS tween and 200 μl of p-Nitrophenyl Phosphate (PNPP) substrate is added to each well and incubated at 37° C. till colour develops around 15 minutes. Reading was taken at 405 nm using a BIOTEK Micro Plate Reader.
(In general: An ELISA detects its analyte on a solid surface through an enzyme-linked reagent.)

Results on one molecule are retold here after patent US20110002939A1 (BIOCON, published 2011).

B1: T1h, humanized IgG1 isotype anti-CD6 monoclonal antibody (antibody, V domains shown)
VH: EVQLVESGGGLVKPGGSLKLSCAASGFKFSRYAMSWVRQAPGKRLEWVATISSGGSYIYYPDSVKGRFTISRDNVKNTLYLQMSSLRSEDTAMYYCARRDYDLDYFDSWGQGTLVTVSS
VL: DIQMTQSPSSLSASVGDRVTITCKASRDIRSYLTWYQQKPGKAPKTLIYYATSLADGVPSRFSGSGSGQDYSLTISSLESDDTATYYCLQHGESPFTLGSGTKLEIK
notes: also called humanized IOR-T1; sT1h
Consider B1, for which the binding result is “binds”.
